# In patent US8598315B2, “Protein transduction domains derived from secretory leukocyte protease inhibitor” (Research Foundation of City University of New York, priority 2007, dated 2013):
# Ends that are not written are not given here.
# Columns and labels:
# [1] = tested on: retinal ganglion cell layer of the retina; assay: SLPI-derived PTD injected into adult eye (Example 8, expected result); settings: adult rats, injected into the eyes, 4 hours
# Method: To analyze the transduction characteristics of SLPI11-25 in vivo, fSLPI11-25 is injected into the eyes of adult rats.
# [2] = tested on: retinal ganglion cell layer of the retina; assay: Internalization in vivo after injection into the vitreous chamber of the eye; settings: adult rats, 5 μl of 1 μg/μl into vitreous chamber, 4 hours
# Method: To analyze the transduction characteristics of SLPI in vivo, fSLPI was injected into the eyes of adult rats. Long-Evans rats (200-250 g) were anesthetized with 2.5% isofluorane and 5 μl of fSLPI (1 μg/μl) or unconjugated fluorescein was injected into the vitreous chamber of the right eye using a glass micropipette (1 μm diameter) attached to a microsyringe pump. 4 hours later, the animals were sacrificed by transcardial perfusion with 4% paraformaldehyde. Following removal of the cornea and lens, the eyes were dissected out and post-fixed in 4% paraformaldehyde for 48 hours. Tissues were then cryoprotected in 30% sucrose in phosphate-buffered saline (PBS) for an additional 48 hours. Tissues were sectioned sagitally at 30 μm on a cryostat and thaw-mounted onto gelatin-coated slides.
# DRG neurons [3] = assay: Internalization of fluorescein-labeled SLPI/peptides by DRG neurons at 37° C. (fluorescence microscopy); type: cell-based; settings: for internalization / presence in nuclei of DRG neurons: P6 DRG neurons, 5 μg/ml, 15 minutes
# Method: To visualize internalization of SLPI in living cells, SLPI was labeled with fluorescein using a Fluorescein-EX protein labeling kit (Molecular Probes). The labeling reaction was performed following the protocol provided by the manufacturer. P5 DRG neurons were isolated (Mukhopadhyay et al., 1994; DeBellard et al., 1996; Cai et al., 1999; supra) and treated with either 10 μg/ml of fluorescein-labeled SLPI (fSLPI) or unconjugated fluorescein in SATO culture medium. Cells were then plated in 8 well chamber slides coated with 100 μg/ml poly-D-lysine (PDL) and incubated for 1 hour at 37° C. Cells were then fixed with 4% paraformaldehyde and immunostained using a monoclonal antibody to the neuronal marker βIII tubulin (1:1000 dilution, Covance). After an overnight incubation at 4° C., the cells were rinse and incubated successively with biotinylated anti-mouse antibody (1:500 dilution, Amersham) and Texas Red-conjugated streptavidin (1:300 dilution, Amersham). Slides were then coverslipped and viewed using an upright fluorescence microscope.
# To further characterize SLPI internalization into living cells, P5 DRG neurons in SATO culture medium were treated with unconjugated fluorescein, 1 μg/ml fSLPI, or 10 μg/ml fSLPI and plated onto PDL-coated slides for 5 minutes at 37° C. Cells were then fixed and immunostained for βIII tubulin as described.
# The transduction characteristics of a SLPI-derived PTD comprising amino acids 11-25 of human SLPI (SLPI11-25) were compared to those of the SLPI protein. SLPI11-25 and penetratin were custom synthesized and labeled with fluorescein at the C-terminus by Invitrogen. P6 DRG neurons were isolated and treated with unconjugated fluorescein, 5 μg/ml fSLPI, 5 μg/ml SLPI11-25, or 5 μg/ml penetratin in SATO culture medium. Cells were plated onto PDL-coated slides and incubated for 15 minutes at 37° C. Cells were then fixed and immunostained for βIII tubulin as described.
# DRG neurons [4] = assay: Internalization at 4° C. by DRG neurons plated on CHO cell monolayers; type: cell-based; settings: P6 DRG neurons, 10 μg/ml, 4 hours
# Method: (§1) For these experiments, monolayers of Chinese hamster ovary (CHO) cells were prepared by plating 75,000 cells into the wells of 8-well chamber slides coated with 20 μg/ml PDL and 10 μg/ml fibronectin (Mukhopadhyay et al., 1994, supra). These cells were incubated overnight at 37° C. to allow the monolayers to form. P6 DRG neurons were then isolated, plated on the monolayers in SATO culture medium, and incubated for an additional 16 hours. This approach was used because of the harsh conditions used in these experiments. Neurons would likely fail to adhere to the slides if plated directly onto PDL and incubated at 4° C., and so, we enhanced adhesion by plating the neurons on CHO cell monolayers and allowing them to extend neurites. Cold SATO culture medium was supplemented with 10 μg/ml penetratin, fSLPI, or SLPI11-25 and added to the wells containing the neurons. The slides were then covered and incubated at 4° C. for 4 hours. Cells were then fixed and immunostained for βIII tubulin as described.
# [5] = tested on: Chinese hamster ovary (CHO) cells; assay: Presence in the underlying CHO cell monolayer at 4° C.; type: cell-based; settings: 10 μg/ml, 4 hours
# Method: as §1
# [6] = Blood brain barrier crossing after intraperitoneal injection; type: in vivo, 129SI/SV1MJ mice; settings: mice, intraperitoneal 100 μg
# Method: To assess whether SLPI crosses the blood brain barrier, adult 129SI/SV1MJ mice received intraperitoneal injections of 100 μg fSLPI in sterile PBS or unconjugated fluorescein (500 μl total volume). Mice were sacrificed by transcardial perfusion with 4% paraformaldehyde after 4 and 8 hours. The brains and cervical spinal cords were dissected out and prepared for sectioning as described. Tissues were sectioned coronally at 30 μm and slides were coverslipped as described. […] This may be an inherent property of SLPI or may be secondary to its observed efficient cellular internalization which may in turn prevent SLPI from ever reaching the CNS in high enough concentrations to be detected.
# To assess whether SLPI11-25 crosses the blood brain barrier, 129SI/SV1MJ mice received intraperitoneal injections of 100 μg SLPI11-25 or penetratin in sterile PBS ([…]). Mice were sacrificed after 1 and 4 hours, and the brains and cervical spinal cords were prepared for sectioning as described. Tissues were sectioned coronally at 30 μm and slides were coverslipped as described. […] This may be an inherent property of SLPI-derived PTDs, or may be secondary to its observed efficient cellular internalization, which may in turn prevent the SLPI-derived PTD from ever reaching the CNS in high enough concentrations to be detected.
# cerebellar neurons = assay: Western blot of cytoplasmic and nuclear fractions of treated cerebellar neurons; type: cell-based, rats; settings: 0, 1, 5, and 10 μg/ml, 1 hour, 37° C.
# Method: FIG. 1: Western blot analysis of cytoplasmic and nuclear fractions from cerebellar neurons treated with 0, 1, 5, and 10 μg/ml SLPI for 1 hour. Higher levels of SLPI are observed in both cytoplasmic and nuclear fractions with increasing concentrations of SLPI. Phospho-CREB is used as a nuclear marker and actin is used as a loading control. See Example 1.
# To characterize the transduction abilities of the SLPI protein, cerebellar neurons were isolated from postnatal day 6 (P6) rats (Mukhopadhyay et al., Neuron 13:757-767 (1994); DeBellard et al., Mol. Cell. Neurosci. 7:89-101 (1996); Cai et al., Neuron 22:89-101 (1999)) and treated with 0, 1, 5, and 10 μg/ml recombinant human SLPI (R&D Systems) in SATO culture medium (Doherty et al., Neuron 5:209-219 (1990); Nature 343:464-466 (1990)). Cells were incubated at 37° C. for 1 hour, and cytoplasmic and nuclear fractions were prepared using NE-PER cytoplasmic and nuclear extraction reagents (Pierce). Protein samples were subjected to SDS-PAGE using 15% SDS polyacrylamide gels and transferred to nitrocellulose. SLPI was detected using a polyclonal antibody to recombinant human SLPI (R&D Systems). […] The nuclear localization of SLPI was then confirmed by reprobing the membrane for a well-known nuclear marker: phosphorylated cyclic AMP response element binding protein (pCREB; Cell Signaling). […]
molecule,measurement,setting,value
O=C1OC2(c3ccc(O)cc3Oc3cc(O)ccc32)c2ccccc21 [fluorescein],presence in the retinal ganglion cell layer of the retina,[1],no signal is observed
same,presence in the retinal ganglion cell layer of the retina,[2],no signal was observed
"SLPI11-25: SLPI-derived PTD, amino acids 11-25 of human SLPI (PPKKSAQCLRYKKPE, SEQ ID NO: 2), labeled with fluorescein at the C-terminus (PPKKSAQCLRYKKPE-fluorescein; listed as Homo sapiens)",internalization / presence in nuclei of DRG neurons,DRG neurons [3],present in the nuclei of DRG neurons
same,nuclear localization at the restrictive temperature,DRG neurons [4],still occurred at the restrictive temperature
same,present in the underlying CHO cell monolayer,[5],not
same,observed in the brain and spinal cord,[6]; 1 and 4 hours,No SLPI11-25 was observed in the brain and spinal cord at either time point
"SLPI: recombinant human secretory leukocyte protease inhibitor (R&D Systems), 107 amino acid polypeptide, SEQ ID NO: 1 (protein, listed as Homo sapiens) SGKSFKAGVCPPKKSAQCLRYKKPECQSDWQCPGKKRCCPDTCGIKCLDPVDTPNPTRRKPGKCPVTYGQCLMLNPPNFCEMDGQCKRDLKCCMGMCGKSCVSPVKA",SLPI in cytoplasmic and nuclear fractions,cerebellar neurons,present in increasing amounts in both the cytoplasmic and nuclear fractions
"fSLPI: SLPI labeled with fluorescein using a Fluorescein-EX protein labeling kit (protein, UniProt P03973 26-132, looked up, fluorescein label, SLPI labeled with fluorescein using a Fluorescein-EX protein labeling kit) Antileukoproteinase: SGKSFKAGVCPPKKSAQCLRYKKPECQSDWQCPGKKRCCPDTCGIKCLDPVDTPNPTRRKPGKCPVTYGQCLMLNPPNFCEMDGQCKRDLKCCMGMCGKSCVSPVKA",internalization into nuclei,"DRG neurons [3]; P5 DRG neurons, 1 μg/ml or 10 μg/ml, 5 minutes",internalized into nuclei within 5 minutes in a dose-dependent manner
same,internalization / presence in nuclei of neurons,"DRG neurons [3]; P5 DRG neurons, 10 μg/ml, 1 hour",clearly present in the nuclei of neurons
same,internalization / presence in nuclei of DRG neurons,DRG neurons [3],present in the nuclei of DRG neurons
same,nuclear localization at the restrictive temperature,DRG neurons [4],still occurred at the restrictive temperature
same,present in the underlying CHO cell monolayer,[5],not
same,observed in the brain and spinal cord,[6]; 4 and 8 hours,No fSLPI was observed in the brain and spinal cord at either time point
